We go through eleven sequences from the DeepSol protein solubility set.

The nature of this data set: soluble on expression in E. coli; label from the status in PepcDB or PDB records.
“MNSASFLQSRLISRSFLVRRSLKRYSGLAKPYTFQQPTIYALSTPANQTSAIAIIRISGTHAKYIYNRLVDSSTVPPIRKAILRNIYSPSSCSVKPHDQKESKILLDTSLLLYFQAPYSFTGEDVLELHVHGGKAVVNSILKAIGSLHDRSSGKDIRFALPGDFSRRAFQNGKFDLTQLEGIKDLIDSETESQRRSALSSFNGDNKILFENWRETIIENMAQLTAIIDFADDNSQEIQNTDEIFHNVEKNIICLRDQIVTFMQKVEKSTILQNGIKLVLLGAPNVGKSSLVNSLTNDDISIVSDIPGTTRDSIDAMINVNGYKVIICDTAGIREKSSDKIEMLGIDRAKKKSVQSDLCLFIVDPTDLSKLLPEDILAHLSSKTFGNKRIIIVVNKSDLVSDDEMTKVLNKLQTRLGSKYPILSVSCKTKEGIESLISTLTSNFESLSQSSADASPVIVSKRVSEILKNDVLYGLEEFFKSKDFHNDIVLATENLRYASDGIAKITGQAIGIEEILDSVFSKFCIGK”: the “soluble on expression in E. coli” value is recorded as “not soluble”. Turning to “MKLQLALDELTLPEAMVFMDKVVDDVDIIEVGTPFLIREGVNAIKAIKEKYPHKEVLADAKIMDGGHFESQLLFDAGADYVTVLGVTDVLTIQSCIRAAKEAGKQVVVDMICVDDLPARVRLLEEAGADMLAVHTGTDQQAAGRKPIDDLITMLKVRRKARIAVAGGISSQTVKDYALLGPDVVIVGSAITHAADPAGEARKISQVLLQHH”, the “soluble on expression in E. coli” value is reported as “soluble”. With “MKKDAKDHARNRLMDCYIKKAPTYAAIVKIEHFENDDASSKDFEPFVVYSLNKKKRWEINEESLNSSTEGTSTKSVIIDREIPDLQDSWWCLQNDLLNNCIYHSNPVNSAQMATAKKYEKVIGYHIVRIPVNHKKVFDKKCTRDLSYRYRDSIGNVPRDLTVLQYEMKEVEHGKEDFAKENISPEVNNPSKTIGFYNLEEHFVARKQQKSKGWLTVN”, the “soluble on expression in E. coli” value is reported as “not soluble”.

Turning to “MGKKHKKHKSDKHLYEEYVEKPLKLVLKVGGNEVTELSTGSSGHDSSLFEDKNDHDKHKDRKRKKRKKGEKQIPGEEKGRKRRRVKEDKKKRDRDRVENEAEKDLQCHAPVRLDLPPEKPLTSSLAKQEEVEQTPLQEALNQLMRQLQRKDPSAFFSFPVTDFIAPGYSMIIKHPMDFSTMKEKIKNNDYQSIEELKDNFKLMCTNAMIYNKPETIYYKAAKKLLHSGMKILSQERIQSLKQSIDFMADLQKTRKQKDGTDTSQSGEDGGCWQREREDSGDAEAHAFKSPSKENKKKDKDMLEDKFKSNNLEREQEQLDRIVKESGGKLTRRLVNSQCEFERRKPDGTTTLGLLHPVDPIVGEPGYCPVRLGMTTGRLQSGVNTLQGFKEDKRNKVTPVLYLNYGPYSSYAPHYDSTFANISKDDSDLIYSTYGEDSDLPSDFSIHEFLATCQDYPYVMADSLLDVLTKGGHSRTLQEMEMSLPEDEGHTRTLDTAKEMEITEVEPPGRLDSSTQDRLIALKAVTNFGVPVEVFDSEEAEIFQKKLDETTRLLRELQEAQNERLSTRPPPNMICLLGPSYREMHLAEQVTNNLKELAQQVTPGDIVSTYGVRKAMGISIPSPVMENNFVDLTEDTEEPKKTDVAECGPGGS”, the “soluble on expression in E. coli” value is “soluble”. “MTRTSKWTVHEAKSNPKYFTHNGNFGESPNHVKRGGYGKGNWGKPGDEINDLIDSGEIKTVFNKTRRGSNSQNNERRLSDLQQYHI”: the “soluble on expression in E. coli” value is on record as “soluble”. Turning to “MGKEQFREADKALKVVGVKFAPGDCEFMRQTAHVPIFNNKLYEDVEGKLQPANYGPLDPKMGVSTKTGTCSTCGLGLTDCVGHFGYFDLDVPVFHIGFFKLTIQLLQCICKNCSSILLTPEQHRVFSRQVMNPNLDYLHRKALHKRIVAACKKGSTCSHCGLKNGTVKKAVGAVLKIAFASPVSVDELGKFATMFSSNQEVGDHVRKMKFTLLNPLFVQKLFSNIKEGDIPVLMVRSGEEKHPNDLLLTRMPVPPVCIRPSVVSEVKAGTTEDDVTMKLMEIMLTNDVLKKHKRDGAPSKTLFETWEHLQIQCALYINSEMSGLPPDMQPKRAMRAFTQRLKGKQGRFRGNLCGKRVDFSGRTVISPDPNLRIDQVGVPIHVAMTLTFPEIVNASNIEKMRQLVINGSDVHPGANYLVEKKTGNKKLLKYGKRDELAKNLRMGDTIERHLDDNDVVLFNRQPSLHKISIMSHRAKVMPGRTFRFNECACTPYNADFDGDEMNLHLPQTYEAKAEASELMNVKNNLITPRSGEPLVAAIQDFITGGYLLTHKDTFLPRAEVYRFAAALIDASAKKQTKIRIPPPAIRRPVELWTGKQLIELIIRPDKGSDVSLNLTAKNKSYTGNLELCSKDSYVIIRNSVLLAGCLDKSLLGSSSKVNIFYMLMRDYGEDAAVDAMWRLARMAPVFLSNRGFSIGIGDVRPSEQLLREKGQLVDNGYSKCSQYIKELEEGKLKAQPGCTEEETLESIILRELSTIRDHAGQVCLRNLSKYNAPLTMAVCGSKGSFINISQMIACVGQQAISGHRPPDGFEERSLPHFERKKKTPEAKGFVANSFYSGLTPTEFFFHTMGGREGLVDTAVKTAETGYMQRRLVKCLEDLCASYDGTVRSSVGDVIEFVFGEDGLDPAMMEAKDGSVVDFTHVLEHAKNIQTTKEQPIPVDKLDEVLKAEIQKKFKGKYVHFADKLSEYITQTEIKKSKKWQNGKAHCGNHETADLKTKESCKICKNLEAYKTSLLANSCLTKTQLCSFIELCYYKVARAITEPGTAVGAIAATSIGEPSTQMTLKTFHFAGVASMNITQGVPRIKEIINAVKTISTPIITAALLDPYDESLARRVKARIEKTTLGEICDYIEEVYLPDDYFLLVKLNSKRIRLLQLEVCMESISYAIATSKVCPQMRGCKIVAHGKTMMAIRPPSTSKLSKTMTMQILKYSLANVVVKGIPSVNRCVIHADEKKGDFYSLLVEGTDFRSVLSSVGVDPRKTNFNNALVVADVLGIEAARSCIINEIIATMDAHGIGLDRRHVMLLADVMTYRGEVLGITRNGLVKMKDSVLLLASFEKTMDHLFEAAFFSQRDVIHGVSECIIMGTPMTVGTGTFKLMQKYDKKAVLKQNSPIFERLNVTL”, the “soluble on expression in E. coli” value was “not soluble”.

With “MAHHHHHHMELYQDNKINNVGNIEINQCDGVIKKENDLHVSVIKPITKKIIHCDNMENKMKINAFYKPVELVEEIKNYVHKGDTHLVKLYEDFKNKKDKKVKMKNEYMTKLKNLHILNMINNKKKENECGVVNKNNIVHFNLFNENEDVTPKIETVYIPKLEKNIEVVSHLKENVNVDYTYMVPKPVVIPIEVPILKFRDHFKIIPIRKKIIPVIKYTDNIIYVDCCVEKPYIVYENVIIPVPCDIPIEQKKYIDKVPPI”, the “soluble on expression in E. coli” value is listed as “not soluble”.

“MAHHHHHHMGTLEAQTQGPGSMNIDAISIGSNPPEDVNVIIEVPVGGQPIKYEMDKKAGALIVDRFLYTPMTYPGNYGFVPHTLSEDGDPIDVLVCNTRPLIPGCVINVRPIGVLVMEDNSGKDEKIIAVPSPHLTRRYEKIHDYTDMPEITLKQIAHFFEHYKDLEPGKWVKIGDWGDEDYARKFIVEAIERAKGK”: the “soluble on expression in E. coli” value is “soluble”.

In the case of “MVLFMLSESKKKATNWEQITKKHGSVQCVKGCCCYSLIISFMKPKEKKDFVLFCLSSVVTCCRPIQIPSRQEKKGKFLCFFLLVLIR”, the “soluble on expression in E. coli” value is “soluble”. Next, “MEEYKLSHLKELEAESIHIIREVAAEFENPVMLYSIGKDSSVMVRLAEKAFYPGKVPFPLMHIDSKWKFKEMIQFRDEYAKKHGWNLIVESNMEAFHAGVGPFTHGSKVHTDLMKTQALLHALDKYKFDAAFGGARRDEEKSRAKERIFSFRDKFHQWDPKNQRPELWDIYNARVHKGESIRVFPISNWTELDIWQYIRLENIPIVPLYYAKERPVINLDGNIIMADDDRLPEKYRDQIEMKMVRFRTLGCWPLTGAVESGAATIEEIVEEMMTTTKSERTTRVIDFDQEGSMEQKKREGYF”: “not soluble”; “MSLYENKKVVAIGGGHGLGRMLAALKVFGSNATGIVTTTDNGGSTGRIRHCQGGIAWGDTRNCINQLITEPSISSMMFEYRFKGAGELNGHNLGNLMLTALDNLSVRPLDAINLIRNMLKVDVNILPMSEHPSDLAALAMDGKWVTGETSVDEMTQDLRRLDLAPEVPATKEAVTAIQDADCVILGPGSFLTSVMPPLLLPELGKAIARNQTAKVIFVENLSPEYGPAGRMSLEQKLEWCERACQGRKIDVVLGHHPHPELEQRWNFVTRDLASANRDWRHDRQKLRQAIEEQLMNLEHHHHHH”: “soluble”.
